Source: US6949506B2, “Relaxin-like factor and methods and uses thereof” (BAS Medical, Inc., priority 1995, dated 2005)
Positions of bridges follow the written chain, without caps; N, C: chain ends. Chains are numbered I, II in the order given. No end group written: not given here.

Columns and labels:
[1] = tested on: collagen expression, rheumatoid synovial fibroblasts (Strain No. RSF64); experiment: Inhibition of collagen expression by synovial fibroblasts; type: cell-based, human
Experimental: The method for detecting and measuring collagen formation in the presence of relaxin described in Unemori and Amento, 1990, J. Biol. Chem. 265:10681-685 has been modified as follows to determine the ability of RLF, in vitro, to modulate the expression of collagen. Materials and Methods. Rheumatoid synovial fibroblasts (Strain No. […] The cells were simultaneously biosynthetically labelled with ^3H=[…] μCi/ml) in the presence of ascorbate and BAPN. After 24 hours, the conditioned media were collected and electrophoresed on 4-12% polyacrylamide gels (NOVEX) under reducing conditions. Gels were enhanced, dried, and exposed to X-ray films for 1-2 weeks. Collagen bands were identified on the X-ray films as bacterial collagenase-sensitive, proline-incorporating bands between 95-200 kDa. Band density was quantified by scanning densitometry and used as estimates of collagen expression.

[2] = tested on: crude membrane preparations of leg muscles, kidneys, liver, brain, and uterus; experiment: Tissue specificity of 125I-RLF binding; parameters: species or system mouse; details: skeletal muscle, kidney and liver tested, female estrogen primed mice
Experimental: FIG. 6. FIG. 6 depicts the tissue distribution of RLF receptors in female estrogen primed mice as measured in vitro in a receptor-binding assay.
Tissue specificity was determined using crude membrane preparations of leg muscles, kidneys, liver. brain, and uterus (of estrogen primed mice). The crude membranes were prepared as described for relaxin. Binding was based on protein concentration determined by Lowry.

[3] = molecular target: RLF receptor of mouse brain (mouse); experiment: displacement of 125I-RLF tracer, mouse brain crude membranes; amount of competitor at 50% binding
[4] = molecular target: RLF receptor of mouse uterus (mouse); experiment: displacement of 125I-RLF tracer, mouse uterus crude membranes; amount of competitor at 50% binding
RLF receptor of mouse uterus (mouse), sequence (Q91ZZ5 whole entry): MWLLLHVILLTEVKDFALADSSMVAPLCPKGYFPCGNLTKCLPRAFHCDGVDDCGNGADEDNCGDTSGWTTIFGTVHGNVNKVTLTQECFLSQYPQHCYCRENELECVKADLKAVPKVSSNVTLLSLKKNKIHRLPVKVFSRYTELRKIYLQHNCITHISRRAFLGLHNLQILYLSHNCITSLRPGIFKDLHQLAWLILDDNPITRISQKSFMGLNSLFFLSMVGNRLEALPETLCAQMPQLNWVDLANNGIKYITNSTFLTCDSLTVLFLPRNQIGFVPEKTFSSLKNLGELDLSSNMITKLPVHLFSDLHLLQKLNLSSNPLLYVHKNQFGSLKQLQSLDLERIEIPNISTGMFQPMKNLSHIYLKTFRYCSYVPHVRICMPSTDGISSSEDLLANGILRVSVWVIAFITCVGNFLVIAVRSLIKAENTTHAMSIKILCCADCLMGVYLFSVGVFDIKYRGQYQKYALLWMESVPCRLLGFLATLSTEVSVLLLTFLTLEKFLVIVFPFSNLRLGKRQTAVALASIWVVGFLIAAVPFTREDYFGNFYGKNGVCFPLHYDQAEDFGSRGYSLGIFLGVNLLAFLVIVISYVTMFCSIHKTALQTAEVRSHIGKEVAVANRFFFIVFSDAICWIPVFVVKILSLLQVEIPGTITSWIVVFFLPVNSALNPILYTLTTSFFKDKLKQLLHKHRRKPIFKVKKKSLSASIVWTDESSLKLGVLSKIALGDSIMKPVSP

[5] = molecular target: mouse brain relaxin receptor (mouse); experiment: displacement of porcine relaxin tracer, mouse brain crude membranes; amount of competitor at 50% binding
[6] = molecular target: mouse uterine relaxin receptor (mouse); experiment: displacement of porcine relaxin tracer, mouse uterus crude membranes; amount of competitor at 50% binding
mouse uterine relaxin receptor (mouse), sequence (Q6R6I7 whole entry): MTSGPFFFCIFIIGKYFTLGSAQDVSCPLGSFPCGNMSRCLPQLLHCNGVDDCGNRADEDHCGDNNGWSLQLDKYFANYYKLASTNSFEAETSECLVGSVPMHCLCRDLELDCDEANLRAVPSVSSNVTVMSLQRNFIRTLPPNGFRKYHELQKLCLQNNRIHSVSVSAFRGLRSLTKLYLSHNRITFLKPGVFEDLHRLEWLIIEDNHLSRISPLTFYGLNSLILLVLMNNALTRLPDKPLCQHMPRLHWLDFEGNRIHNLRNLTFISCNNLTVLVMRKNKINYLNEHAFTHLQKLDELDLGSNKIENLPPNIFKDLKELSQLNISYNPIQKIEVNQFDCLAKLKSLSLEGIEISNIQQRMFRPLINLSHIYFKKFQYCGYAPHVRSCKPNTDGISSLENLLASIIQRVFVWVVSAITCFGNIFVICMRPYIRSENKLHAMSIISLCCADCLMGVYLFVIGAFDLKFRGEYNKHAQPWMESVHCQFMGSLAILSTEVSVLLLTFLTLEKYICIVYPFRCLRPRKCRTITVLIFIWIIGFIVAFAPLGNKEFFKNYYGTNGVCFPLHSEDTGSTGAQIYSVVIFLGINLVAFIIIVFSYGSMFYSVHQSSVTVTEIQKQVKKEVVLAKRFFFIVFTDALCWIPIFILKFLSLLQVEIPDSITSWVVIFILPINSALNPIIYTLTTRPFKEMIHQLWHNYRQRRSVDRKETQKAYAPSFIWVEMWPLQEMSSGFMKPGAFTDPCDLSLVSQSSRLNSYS

[7] = molecular target: mouse brain relaxin receptor (mouse); experiment: displacement of porcine relaxin tracer, mouse brain crude membranes

Molecule	increase of collagen expression over untreated fibroblasts [1] [fold]	tissues showing specific binding [2]	50% Binding [3] [ng]	50% Binding [4] [ng]	50% Binding [5] [ng]	50% Binding [6] [ng]	excess that displaces 50% of the relaxin tracer [7] [fold excess]
TGF-β [reference compound]	3.75						
^125I-RLF: 125I-labeled RLF used as tracer (chain 1 AAATNPARYCCLSGCTQQDLLTLCPY; chain 2 PTPEMREKLCGHHFVRALVRVCGGPRWSTEA; disulfide I:11-II:10; cysteine pairing not given here; also: 125I-labeled (site not given here))		only the brain- and the uterus membrane preparation showed specific binding					
human relaxin (ligand) chain 1: QLYSALANKCCHVGCTKRSLARFC chain 2: DSWMEEVIKLCGRELVRAQIAICGMSTWS			1000	800	1	1	
human relaxin-like factor (RLF), synthetic (ligand) chain 1: AAATNPARYCCLSGCTQQDLLTLCPY chain 2: PTPEMREKLCGHHFVRALVRVCGGPRWSTEA			0.3	0.3	200	10000	100
